Results on 1 molecule are retold here after article PMC12609908.

This data set deals with T1, CutR (Mycobacterium sp. strain JC1, UniProt D5G1X9 1-320).
T1 sequence: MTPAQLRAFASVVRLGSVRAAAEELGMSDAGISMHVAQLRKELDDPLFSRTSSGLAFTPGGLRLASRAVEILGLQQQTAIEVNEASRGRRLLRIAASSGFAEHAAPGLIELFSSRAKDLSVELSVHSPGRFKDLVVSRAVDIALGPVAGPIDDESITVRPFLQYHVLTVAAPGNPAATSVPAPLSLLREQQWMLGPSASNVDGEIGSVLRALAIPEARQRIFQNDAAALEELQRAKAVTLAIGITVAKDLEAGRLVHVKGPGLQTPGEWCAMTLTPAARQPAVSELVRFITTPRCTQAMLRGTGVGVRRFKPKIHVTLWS
The data set can be described thus: EMSA; no CO; 50 mM Tris-HCl pH 8.0, 100 mM NaCl, 40% glycerol, 5 mM DTT, 2 mM EDTA, 4 °C 1 h; 10% native PAGE in 0.5x TBE at 4 °C. The conditions noted are these: protein: recombinant; tags: C-terminal His6; chain copies: 2; label: 5'-biotin (forward strand); blunt.

B1: IR2 (29 bp) (dsDNA)
DNA 1: GGGCCAGTTAAGCGATTCCTTAAGGGGGG
DNA 2: CCCCCCTTAAGGAATCGCTTAACTGGCCC
Regarding B1, the binding result is “binds”.
